These are literature values, as cited in article PMC3720600.

The target of this data set is Cys145 (UniProt position 145, PILIPCHRVVC).

One may read the pKa as the negative logarithm of the acid dissociation constant. As for “O6-methylguanine-DNA methyltransferase (MGMT; O6-alkylguanine-DNA alkyltransferase, AGT) (Homo sapiens)”, the pKa is recorded as 4.8.
